From patent US20230287489

Biological target: T1, human placental RNase inhibitor (NEB, Cat #M0307S), P13489
T1 chain: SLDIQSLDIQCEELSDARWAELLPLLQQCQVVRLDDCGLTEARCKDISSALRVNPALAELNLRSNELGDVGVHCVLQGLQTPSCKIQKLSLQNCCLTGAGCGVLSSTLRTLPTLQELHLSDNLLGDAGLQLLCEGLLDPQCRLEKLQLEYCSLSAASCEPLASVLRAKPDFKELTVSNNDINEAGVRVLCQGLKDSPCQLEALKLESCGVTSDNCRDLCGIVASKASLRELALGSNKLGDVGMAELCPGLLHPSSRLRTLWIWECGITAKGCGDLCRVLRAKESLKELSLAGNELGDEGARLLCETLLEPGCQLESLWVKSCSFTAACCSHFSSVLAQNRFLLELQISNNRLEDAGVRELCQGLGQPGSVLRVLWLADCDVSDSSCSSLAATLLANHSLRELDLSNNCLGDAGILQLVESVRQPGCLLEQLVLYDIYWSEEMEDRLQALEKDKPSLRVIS

B1: recombinant wild-type human RNase4 (hRNase 4), periplasmically expressed as an MBP fusion protein (protein)
chain: QDGMYQRFLRQHVHPEETGGSDRYCNLMMQRRKMTLYHCKRFNTFIHEDIWNIRSICSTTNIQCKNGKMNCHEGVVKVTDCRDTGSSRAPNCRYRAIASTRRVVIACEGNPQVPVHFDG
- cleavage of a target RNA oligonucleotide (SEQ ID NO: 23) by hRNase 4, LC-MS/MS: cleavage of the target oligonucleotide was inhibited following preincubation of hRNase 4 with human placental RNase inhibitor
